Results taken from US6124449, “High affinity TGFβ nucleic acid ligands and inhibitors” (NeXstar Pharmaceuticals, Inc.).

Experiments:
[1] = target: T1, TGF-beta1 (hTGF-beta1) (Homo sapiens, UniProt P01137 P01137:279-390); assay: filter; biphasic; Kd1 3.8±0.9 nM; conditions: tags: R&D Systems; biotinylated form (NFTG0) used for BIAcore; chain copies: 2
[2] = target: T1, TGF-beta1 (hTGF-beta1); assay: cell_activity; MLEC growth suppression reversal; conditions: tags: R&D Systems; biotinylated form (NFTG0) used for BIAcore; chain copies: 2; label: 5'-biotin for BIAcore specificity; proposed double pseudoknot
Experimental: Cells were plated at 10^5/mL in 96-well plates in MEM, 10 mM HEPES and 0.2% FBS. Following 4 hours of incubation at 37° C., when cells appeared to attach to the well surface, TGFβ1 was added at 2 pM with or without TGFβ1 ligands that ranged from 0.1 nM to 1 µM. In a second assay performed in order to determine cross-species reactivity, rather than using hTGFβ, a conditioned serum-free medium (CM) was used. CM was conditioned by culturing it in murine 3T3 fibroblast for 48 hours. Before use, this conditioned medium was heat treated at 80° C. for 10 minutes to activate the 3T3 cell derived TGFβ and then it was diluted to 50% and supplemented with 0.2% murine serum. In each assay, hTGFβ1 (or CM) was diluted appropriately in MEM and FBS (0.2% or murine serum) and the ligands were diluted in MEM. TGFβ1 (or CM) and ligand dilutions at 10× the final concentration were premixed at equal volumes and then were added to the cells. […] After incubation, the cells were washed and harvested with SKATRON filtering units and ^3H-thymidine incorporation in cellular DNA was quantitated by scintillation counting in Ecoscint. Data were plotted and analyzed as described in Park et al. (1990) J. Exp. Med. 171:1073) and Dower et al. (1984) J. Immunol.

[3] = target: T1, TGF-beta1 (hTGF-beta1); assay: filter; biphasic; Kd1 11.5±2.0 nM; conditions: tags: R&D Systems; biotinylated form (NFTG0) used for BIAcore; chain copies: 2
[4] = target: T1, TGF-beta1 (hTGF-beta1); assay: filter; biphasic; Kd1 12.7±4.7 nM; conditions: tags: R&D Systems; biotinylated form (NFTG0) used for BIAcore; chain copies: 2
[5] = target: T1, TGF-beta1 (hTGF-beta1); assay: filter; biphasic; Kd1 12.3±2.4 nM; conditions: tags: R&D Systems; biotinylated form (NFTG0) used for BIAcore; chain copies: 2
[6] = target: T1, TGF-beta1 (hTGF-beta1); assay: filter; biphasic; Kd1 7.7±1.6 nM; conditions: tags: R&D Systems; biotinylated form (NFTG0) used for BIAcore; chain copies: 2
[7] = target: T1, TGF-beta1 (hTGF-beta1); assay: filter; biphasic; Kd1 23±6.4 nM; labelled 30-35 in Table 4 class 7 but sequence is 30-25; conditions: tags: R&D Systems; biotinylated form (NFTG0) used for BIAcore; chain copies: 2
[8] = target: T1, TGF-beta1 (hTGF-beta1); assay: filter; biphasic; Kd1 13.9±4.3 nM; conditions: tags: R&D Systems; biotinylated form (NFTG0) used for BIAcore; chain copies: 2
[9] = target: T1, TGF-beta1 (hTGF-beta1); assay: cell_activity; MLEC assay; conditions: tags: R&D Systems; biotinylated form (NFTG0) used for BIAcore; chain copies: 2
Experimental: Cells were plated at 10^5/mL in 96-well plates in MEM, 10 mM HEPES and 0.2% FBS. Following 4 hours of incubation at 37° C., when cells appeared to attach to the well surface, TGFβ1 was added at 2 pM with or without TGFβ1 ligands that ranged from 0.1 nM to 1 µM. In a second assay performed in order to determine cross-species reactivity, rather than using hTGFβ, a conditioned serum-free medium (CM) was used. CM was conditioned by culturing it in murine 3T3 fibroblast for 48 hours. Before use, this conditioned medium was heat treated at 80° C. for 10 minutes to activate the 3T3 cell derived TGFβ and then it was diluted to 50% and supplemented with 0.2% murine serum. In each assay, hTGFβ1 (or CM) was diluted appropriately in MEM and FBS (0.2% or murine serum) and the ligands were diluted in MEM. TGFβ1 (or CM) and ligand dilutions at 10× the final concentration were premixed at equal volumes and then were added to the cells. Following addition of the TGFβ1 (or CM)-ligand mixture, the cells were incubated for 16–18 hours prior to addition of ^3H-thymidine at 0.25 µCi per well and continued incubation for 7–8 additional hours. After incubation, the cells were washed and harvested with SKATRON filtering units and ^3H-thymidine incorporation in cellular DNA was quantitated by scintillation counting in Ecoscint. Data were plotted and analyzed as described in Park et al. (1990) J. Exp. Med. 171:1073) and Dower et al. (1984) J. Immunol.

[10] = target: T1, TGF-beta1 (hTGF-beta1); assay: filter; biphasic; Kd1 14.2±4.5 nM; conditions: tags: R&D Systems; biotinylated form (NFTG0) used for BIAcore; chain copies: 2
[11] = target: T1, TGF-beta1 (hTGF-beta1); assay: filter; biphasic; Kd1 5.0±0.6 nM; conditions: tags: R&D Systems; biotinylated form (NFTG0) used for BIAcore; chain copies: 2
[12] = target: T1, TGF-beta1 (hTGF-beta1); assay: filter; biphasic; Kd1 71.8 nM; P2 4.3%; conditions: tags: R&D Systems; biotinylated form (NFTG0) used for BIAcore; chain copies: 2
[13] = target: T1, TGF-beta1 (hTGF-beta1); assay: filter; biphasic; Kd1 20.7±13.8 nM; conditions: tags: R&D Systems; biotinylated form (NFTG0) used for BIAcore; chain copies: 2
[14] = target: T1, TGF-beta1 (hTGF-beta1); assay: filter; biphasic; Kd1 6.02±1.5 nM; conditions: tags: R&D Systems; biotinylated form (NFTG0) used for BIAcore; chain copies: 2
[15] = target: T1, TGF-beta1 (hTGF-beta1); assay: filter; biphasic; Kd1 67 nM; P2 4.3%; conditions: tags: R&D Systems; biotinylated form (NFTG0) used for BIAcore; chain copies: 2
[16] = target: T1, TGF-beta1 (hTGF-beta1); assay: filter; biphasic; Kd1 4.6±0.7 nM; conditions: tags: R&D Systems; biotinylated form (NFTG0) used for BIAcore; chain copies: 2

T1 sequence (P01137 279-390, one chain of several): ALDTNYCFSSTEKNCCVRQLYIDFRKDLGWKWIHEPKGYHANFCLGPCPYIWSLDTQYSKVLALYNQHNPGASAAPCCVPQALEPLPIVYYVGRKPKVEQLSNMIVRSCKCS

B1: 40-41 (ssRNA)
RNA: GGGAGGACGAUGCGGUGCCUUUAGCCUGAGUAUACUGAUGUAUAUUCUCUGCCGCAGACGACUCGCCCGA
modifications: 2'-F C and U
Kd [1]: 0.0014 nM

B2: 40-03 (ssRNA)
RNA: GGGAGGACGAUGCGGGGGUUAUUGGGCGUCAACAUCCCCGAUUCUUUUCACGUCCAGACGACUCGCCCGA
modifications: 2'-F C and U
Ki [2]: 0.4 nM

B3: 40-39 (ssRNA)
RNA: GGGAGGACGAUGCGGUGCCUUUAGCCUAAGUUGAUCUAUUCAGCUUUCUGCCGCAGACGACUCGCCCGA
modifications: 2'-F C and U
Kd [3]: 0.00878 nM

B4: 40-24 (ssRNA)
RNA: GGGAGGACGAUGCGGUUAUGGGCGUCAACACCGCUAUUACAACUUUCGCUUUCCCAGACGACUCGCCCGA
modifications: 2'-F C and U
Kd [4]: 0.0275 nM

B5: 40-28 (ssRNA)
RNA: GGGAGGACGAUGCGGUUAGGGGCGUCAACACCGCUAUUACAACUUUCGCCUCACCAGACGACUCGCCCGA
modifications: 2'-F C and U
Kd [5]: 0.0816 nM

B6: 40-26 (ssRNA)
RNA: GGGAGGACGAUGCGGUUAGGGGCGUCAACAUCGCUAUUACAAUCUUCGCCUUCCCAGACGACUCGCCCGA
modifications: 2'-F C and U
Kd [6]: 0.0408 nM

B7: 30-25 (ssRNA)
RNA: GGGAGGACGAUGCGGUUGGCAUUGAAAGAGGCGUCAUAUGUUCGCCAGACGACUCGCCCGA
modifications: 2'-F C and U
Kd [7]: 0.00114 nM

B8: 40-22,35 (ssRNA)
RNA: GGGAGGACGAUGCGGUUAGGGGCGUCAACACCGCUAUUACAAUUUUCGCUUCCCAGACGACUCGCCCGA
modifications: 2'-F C and U
Kd [8]: 0.0176 nM

B9: 40-23 (ssRNA)
RNA: GGGAGGACGAUGCGGUUAGGGGCGUCAACACCGCUAUUACAAUCUUCGCUUCCCAGACGACUCGCCCGA
modifications: 2'-F C and U
Ki [9]: 0.75 nM
Kd [10]: 0.0156 nM

B10: 40-04 (ssRNA)
RNA: GGGAGGACGAUGCGGAUGCCUUUUGCCUUCAGGGUGUAAUUCCUUGAUCUGUCCGCAGACGACUCGCCCGA
modifications: 2'-F C and U
Kd [11]: 0.0014 nM

B11: 30-16,27,38,46 (ssRNA)
RNA: GGGAGGACGAUGCGGUGCCUUUAGCUUAGGCAUUGCCUUCUGCCGCAGACGACUCGCCCGA
modifications: 2'-F C and U
Kd [12]: 0.211 nM

B12: 30-35 (ssRNA)
RNA: GGGAGGACGAUGCGGUGUCUUUAGCCUAGGUGAUUCCUUCUGCCUCAGACGACUCGCCCGA
modifications: 2'-F C and U
Kd [13]: 0.224 nM

B13: 30-39 (ssRNA)
RNA: GGGAGGACGAUGCGGUGUCUUUAGCUUAGGUGAUUCCUUCUGCCGCAGACGACUCGCCCGA
modifications: 2'-F C and U
Kd [14]: 0.0325 nM

B14: 30-17 (ssRNA)
RNA: GGGAGGACGAUGCGGUGCCUUUAGCUUAGGCUUUGCCUUCUGCCGCAGACGACUCGCCCGA
modifications: 2'-F C and U
Kd [15]: 0.205 nM

B15: 40-11 (ssRNA)
RNA: GGGAGGACGAUGCGGUGCCUUUAGUCUGAAUCUUCUACCAUGAUUCUCUGCCGCAGACGACUCGCCCGA
modifications: 2'-F C and U
Kd [16]: 0.0049 nM
